The text below walks through data of patent publication EP2344531B1 (Danisco US Inc., dated 2014).

Experiment [1] deals with T1, FGF-5 (fibroblast growth factor 5) (UniProt P12034 18-268, limits assumed).
T1 sequence (looked up): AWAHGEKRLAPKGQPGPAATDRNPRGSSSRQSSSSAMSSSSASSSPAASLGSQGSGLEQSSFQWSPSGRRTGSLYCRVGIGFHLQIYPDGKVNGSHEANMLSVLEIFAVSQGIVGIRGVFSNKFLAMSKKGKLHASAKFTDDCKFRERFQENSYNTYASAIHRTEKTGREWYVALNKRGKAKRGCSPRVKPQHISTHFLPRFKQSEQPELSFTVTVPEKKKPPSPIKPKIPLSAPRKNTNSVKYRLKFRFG
As to the kind of experiment: BioVeris ECL competition assay with a labeled competitor; legend: ++ = IC50 about 10 - 50 µM.

Experiment [2] addresses T2, TGFβ1 (transforming growth factor β1) (UniProt P01137 279-390). As to the kind of experiment: BioVeris ECL competition assay with a labeled competitor; negative control.
Experiment [3] deals with T2, TGFβ1 (transforming growth factor β1). As to the kind of experiment: BioVeris ECL competition assay with a labeled competitor; legend: ++ = IC50 about 10 - 50 µM.
The target in experiment [4] is T3, TNFα (tumor necrosis factor α) (UniProt P01375 77-233). The experiment is described as above.
The target in experiment [5] is T3, TNFα (tumor necrosis factor α). As to the kind of experiment: BioVeris ECL competition assay with a labeled competitor; legend: + = IC50 about 50 - 250 µM.
In experiment [6] the target is T4, VEGF (vascular endothelial growth factor) (UniProt P15692-4 27-191, limits assumed, biotin label (Example 5)). As to the kind of experiment: BioVeris ECL competition assay with a labeled competitor; legend: ++ = IC50 about 10 - 50 µM.
The target in experiment [7] is T3, TNFα (tumor necrosis factor α). As to the kind of experiment: BioVeris ECL competition assay with a labeled competitor; negative control.
For experiment [8], the target named is T4, VEGF (vascular endothelial growth …). As to the kind of experiment: BioVeris ECL competition assay with a labeled competitor; legend: +++ = IC50 about 2 - 10 µM.

T3 sequence (P01375 77-233 limits assumed): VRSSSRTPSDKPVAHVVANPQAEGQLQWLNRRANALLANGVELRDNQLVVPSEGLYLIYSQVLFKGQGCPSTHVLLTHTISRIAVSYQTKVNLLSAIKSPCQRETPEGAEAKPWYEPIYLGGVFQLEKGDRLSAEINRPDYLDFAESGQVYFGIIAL
T2 sequence (P01137 279-390 limits assumed): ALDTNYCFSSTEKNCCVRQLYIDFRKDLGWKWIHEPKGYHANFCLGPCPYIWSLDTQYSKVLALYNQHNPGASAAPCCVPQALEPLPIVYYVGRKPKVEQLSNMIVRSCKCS
T4 sequence (P15692 other isoform, or with tags, fused parts or gaps limits assumed): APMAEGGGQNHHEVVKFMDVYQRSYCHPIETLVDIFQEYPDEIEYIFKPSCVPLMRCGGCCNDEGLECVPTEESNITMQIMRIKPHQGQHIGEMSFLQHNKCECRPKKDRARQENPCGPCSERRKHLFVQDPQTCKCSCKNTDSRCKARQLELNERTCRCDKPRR

B1: MM007-Q-BBIt-FGF-5 (BBIt-A13I-L29P-F50T-V52A with the FGF-5 binding peptide MM007 RTQPYPL) (designed binder)
chain: DPDDESSKPCCDQCICTKSNPPQCRCSDMRPNSCHSACKSCACRTQPYPLCTCADITDFCYEPCKPSE
notes: also called BBIt-MM007-Q-A13I-L29P-F50T-V52A
The IC50 is the concentration that gives 50% inhibition. Regarding B1, in experiment [1], the IC50 was 10 to 50 µM.

B2: FGFps2-Q-BBIt-FGF-5 (BBIt-A13I-L29P-F50T-V52A with the FGF-5 binding peptide FGFps2 TWIDSTP) (designed binder)
chain: DPDDESSKPCCDQCICTKSNPPQCRCSDMRPNSCHSACKSCACTWIDSTPCTCADITDFCYEPCKPSE
notes: also called BBIt-FGFps2-Q-A13I-L29P-F50T-V52A
For B2, the IC50 in experiment [2] is over 250 µM; in experiment [1], 10 to 50 µM.

B3: MM021W-Q-BBIt-TGF (BBIt-A13I-L29P-F50T-V52A with the TGFβ1 binding peptide MM021W KHNVDWL) (designed binder)
chain: DPDDESSKPCCDQCICTKSNPPQCRCSDMRPNSCHSACKSCACKHNVDWLCTCADITDFCYEPCKPSE
notes: also called MM021W-Q-BBIt-TGFβ1; BBIt-MM021W-Q-A13I-L29P-F50T-V52A
B3 came in with a half-maximal inhibitory concentration (IC50) in experiment [3] of 10 to 50 µM.

B4: BBIt-TNF-T1 (BBIt-TNFα-T1-A13I-S25R-M27A-L29P-S31A-F50K-V52T, peptide RYWQDIP) (designed binder)
chain: DPDDESSKPCCDQCICTKSNPPQCRCRDARPNACHSACKSCACRYWQDIPCKCTDITDFCYEPCKPSE
B4 yielded an IC50 in experiment [4] of 10 to 50 µM.

B5: BBIt-TNF-T3 (BBIt-TNFα-T3-A13I-S25R-M27A-L29P-S31A-F50K-V52T, peptide DMIMVSI) (designed binder)
chain: DPDDESSKPCCDQCICTKSNPPQCRCRDARPNACHSACKSCACDMIMVSICKCTDITDFCYEPCKPSE
notes: the listing entry must be checked
Turning to B5, the IC50 in experiment [5] is 50 to 250 µM.

B6: BBIt-AV-V5 (BBIt-VEGF-V5-A13I-S25R-M27A-L29P-S31A-F50K-V52T, peptide KPSSASS) (designed binder)
chain: DPDDESSKPCCDQCICTKSNPPQCRCRDARPNACHSACKSCACKPSSASSCKCTDITDFCYEPCKPSE
Consider B6, for which, in experiment [6], the IC50 was 10 to 50 µM.

B7: BBIt-TNF-T2 (BBIt-TNFα-T2-A13I-S25R-M27A-L29P-S31A-F50K-V52T, peptide APEPILA) (designed binder)
chain: DPDDESSKPCCDQCICTKSNPPQCRCRDARPNACHSACKSCACAPEPILACKCTDITDFCYEPCKPSE
B7: in experiment [5], the IC50 was 50 to 250 µM.

B8: BBIt-AV-V1 (BBIt-VEGF-V1-A13I-S25R-M27A-L29P-S31A-F50K-V52T, peptide SKHSQIT) (designed binder)
chain: DPDDESSKPCCDQCICTKSNPPQCRCRDARPNACHSACKSCACSKHSQITCKCTDITDFCYEPCKPSE
Turning to B8, the IC50 in experiment [7] was over 250 µM; in experiment [6] it was 10 to 50 µM.

B9: BBIt-AV-V6 (BBIt-VEGF-V6-A13I-S25R-M27A-L29P-S31A-F50K-V52T, peptide PVTKRVH) (designed binder)
chain: DPDDESSKPCCDQCICTKSNPPQCRCRDARPNACHSACKSCACPVTKRVHCKCTDITDFCYEPCKPSE
As to B9, in experiment [8], the IC50 is 2 to 10 µM.

B10: BBIt-AV-V4 (BBIt-VEGF-V4-A13I-S25R-M27A-L29P-S31A-F50K-V52T, peptide KHSAKAE) (designed binder)
chain: DPDDESSKPCCDQCICTKSNPPQCRCRDARPNACHSACKSCACKHSAKAECKCTDITDFCYEPCKPSE
Take B10: the IC50 in experiment [8] fell in the range of 2 to 10 µM.

B11: BBIt-AV-V3 (BBIt-VEGF-V3-A13I-S25R-M27A-L29P-S31A-F50K-V52T, peptide RPTGHSL) (designed binder)
chain: DPDDESSKPCCDQCICTKSNPPQCRCRDARPNACHSACKSCACRPTGHSLCKCTDITDFCYEPCKPSE
In experiment [6], B11 yielded an IC50 of 10 to 50 µM.

B12: BBIt-AV-V2 (BBIt-VEGF-V2-A13I-S25R-M27A-L29P-S31A-F50K-V52T, peptide KTNPSGS) (designed binder)
chain: DPDDESSKPCCDQCICTKSNPPQCRCRDARPNACHSACKSCACKTNPSGSCKCTDITDFCYEPCKPSE
Turning to B12, the half-maximal inhibitory concentration (IC50) in experiment [8] lay within 2 to 10 µM.

B13: PEN3-Q-BBIt-TGF (BBIt-A13I-L29P-F50T-V52A with the TGFβ1 binding peptide PEN3 PENINVLP) (designed binder)
chain: DPDDESSKPCCDQCICTKSNPPQCRCSDMRPNSCHSACKSCACPENINVLPCTCADITDFCYEPCKPSE
notes: also called PEN3-Q-BBIt-TGFβ1; BBIt-PEN3-Q-A13I-L29P-F50T-V52A
In experiment [3], B13 yielded a 50% inhibitory concentration (IC50) of 10 to 50 µM.

B14: VegKD-Q (BBIt-A13I-S25K-L29P-V52K with the VEGF-binding peptide VegKD KYDLYWW) (designed binder)
chain: DPDDESSKPCCDQCICTKSNPPQCRCKDMRPNSCHSACKSCICKYDLYWWCFCKDITDFCYEPCKPSE
B14: the IC50 in experiment [8] was in the range of 2 to 10 µM.
